Test results published in a protein production outcome set (Wang et al. 2014).

Test: label from the status in PepcDB records

Sequence	protein production
MLARVRRVLALILIVLAGLVALLSPAFPALSHYGTLPRHGDKPLNVLLAGVDVNYDEQAPVWPYPAQPEDYSGRTDTIVLTQVRPDGTVKLLSIPRDSWVPIAGWSGGWGKINSANVHGGPDMLLNTVQALTGVHPDGYALLSLNALRAVTEAVGGVTIDVPQRMKYDDNAGHLHIDLQPGRQRLSGEQAEGFLRFRKDNMGDIGRVGRQQQFLTALIAEIRRPANVWKLPKVIAALDANAKTNLTRAQIAELLGAAQRGPQVSTFTVPGNFGMVGAASVWNVDTPRLDALLAEQFRDPGDPHGLRVLVLNADAPDGSARRLKAKLEALGYHNVSTANEQKPWPVTTVSGPATPAAALLRDLGYGQLDNAPSLPGSELTIRLGRDTPAQ	failed
MDNKVILVGGFHEIIELCEDNDIEIAGIIDNYLTNDTYWGYPIIGTDDKAKVLFETYKNVPVLITPDVPHVRYKLYHYYKSIGFQVASLISRDASISRSAIIGEGTIIQRGANLSSNIKIGQMVKVNTNANIMHDCLIGNYVTVAPNAVLLGKVEIDDKAYIGANATLLPSVKIGENVTVGAGSVVTKSVRLEHHHHHH	failed
MEQTEHIPPPGLVAQLRERSLLQTGDRFETLYGGRTNRVWRLHGPADDLVVKLYRRDFDNPLFGNDAQLEALCLDRLEGTGLAPQLRASGALGQEAWVVYDHAPGAPWRTDPAIAARMLANLHRRALDIPAPAGCNGSAAIRTHAEAILSRCDQPDRELLLKARPHTATIAPGPACLIHGDPVAGNLLVSGDQAILIDWQCPAIGDPAEDLAMFLSPAMQQVYRGAPLTAAEEQQFLSAYDNAGTVARYLSLKPWFHWRMAAYCRWRARNGAPDYAPAFELEHAALAAC	failed
MNWKDKVKTTFYSCDRFVRFVIQHFIQDDCTYIASALAFTSLLAVVPLMSVGLAIFSSFPVFQGLAEPVQNFIFDNFVPATGKIVQSYLQQFTSQVSKLSIWGIVFLIFTALLVMFTIERAMNKIWRVSSSRHGVSAFLLYWAIISLAPVLLGLSLAASSYLFSMPILADHRAPYTILHYSPFFLSLIGFTFLYVVVPNCPVKIRHAFWGGLVAAILFESAKHAFAYYLIRYNTYALLYGAFATVPIFFIWVYWVWIITLLGAEISYAFSVHHQRRGGKSLDGFSHALLWLHQLWLAQQHGKGLSFNDLVDASKQPFAVDVDEMINALIYHELIHATADGHYMLSRDLSHVTLYDLTQLLPYRLPTHLELQYSKASLAEQWRAAFKRHNEELKKSLDINLEELFKKTGTVIK	failed
MNSNDQPGLDLLGDPIVLTQRLVDIPSPSGQEKQIADEIEDALRNLNLPGVEVFRFNNNVLARTNRGLASRVMLAGHIDTVPIADNLPSRVEDGIMYGCGTVDMKSGLAVYLHTFATLATSTELKHDLTLIAYECEEVADHLNGLGHIRDEHPEWLAADLALLGEPTGGWIEAGCQGNLRIKVTAHGVRAHSARSWLGDNAMHKLSPIISKVAAYKAAEVNIDGLTYREGLNIVFCESGVANNVIPDLAWMNLNFRFAPNRDLNEAIEHVVETLELDGQDGIEWAVEDGAGGALPGLGQQVTSGLIDAVGREKIRAKFGWTDVSRFSAMGIPALNFGAGDPSFAHKRDEQCPVEQITDVAAILKQYLSE	not failed
MNTILSTLFIVLAAWFVISRFLPVKGVQNINGKELKSIVGKQGKYFIDVRTVGEYRGNHMKGFQNIPLNDLASKTNQLDKNREVIVICQSGMRSKQAAKMLKKLGFQHVINVSGGMNGL	failed
MAEHPIQGLMETAMESIKEMVDVNTIVGDAVQAPDGTVIIPISKVTFGFAAGGGEFASCCSVDEKGEDSSDDSSKPEIKFPFAGGSGAGVSINPVAFMVVGQGQIKLLPVNINSSLEKILDLIPEIIEKTKDSVKKNLKVKKEIKPGNGESCAKSSKEDENELEHHHHHH	not failed
MMAGFAQTTITKINQFYERWMPRLPAEMTARNVLVFCVVCLLCIGSVMVASASMPYAEYMHENPFHYVVRHAISIATAAIVAYLVYKVPLNVWFKNTFSFWLITILLLLAVLVIGTEVNGSRRWIRLAGFTLQPTEVAKVMMAIFTADYVVRRAKEVRTHWKGLVRLSGVMAITVGLIIAEPDLGATVVIVLMMVGIFFLAGAPPTQFAIMLGAVVMGIGFLILFEPYRLARAMSFTNPWADPLGTGYQLSNALMAFGRGEWFGTGLGHSVQKLSYLPEAHTDFMLAVLGEEFGFVGISIVIGLSFIMLACCIKIGHRALKHNFLRAGYLAYGISIIFLLQIIVNAGMNMGLMPTKGLTLPFISYGGTSLMMCAAMISLILRIDASTQEINPDREESNF	failed
MKTAELIFVPLPETGHLLSTIEFGKRLLNLDRRISMITILSMNLPYAPHADASLASLTASEPGIRIISLPEIHDPPPIKLLDTSSETYILDFIHKNIPCLRKTIQDLVSSSSSSGGGSSHVAGLILDFFCVGLIDIGREVNLPSYIFMTSNFGFLGVLQYLPERQRLTPSEFDESSGEEELHIPAFVNRVPAKVLPPGVFDKLSYGSLVKIGERLHEAKGILVNSFTQVEPYAAEHFSQGRDYPHVYPVGPVLNLTGRTNPGLASAQYKEMMKWLDEQPDSSVLFLCFGSMGVFPAPQITEIAHALELIGCRFIWAIRTNMAGDGDPQEPLPEGFVDRTMGRGIVCSWAPQVDILAHKATGGFVSHCGWNSVQESLWYGVPIATWPMYAEQQLNAFEMVKELGLAVEIRLDYVADGDRVTLEIVSADEIATAVRSLMDSDNPVRKKVIEKSSVARKAVGDGGSSTVATCNFIKDILGDHF	failed
RETLDNLSEAVAVFGSNGCAQLFNPPFARMWNLSAEALQSQPHIEAIEEWCRPLFDDDVFWQALRGAITGIDDRRHVLLKIERKDGSVLACKTMPLPDGATMLTFQDITDTENVERALRERNEALETADRIKIDFVHHVSYELRSPLTTIIGFA	failed
MLAILYDRIRPDERMLFERAEALGLPYKKVYVPALPMVLGERPKELEGVTVALERCVSQSRGLAAARYLTALGIPVVNRPEVIEACGDKWATSVALAKAGLPQPKTALATDREEALRLMEAFGYPVVLKPVIGSWGRLLAKVTDRAAAEALLEHKEVLGGFQHQLFYIQEYVEKPGRDIRVFVVGERAIAAIYRRSAHWITNTARGGQAENCPLTEEVARLSVKAAEAVGGGVVAVDLFESERGLLVNEVNHTMEFKNSVHTTGVDIPGEILKYAWSLAS	not failed
MSDEWKSETPKANDDKSWKLLEKAVLAGVQEQRRARRWGIFFKSLTFIYLFVVLLAFSPFGSLEKSASRSGSHTALIEVKGMIADDEPASADNIVTALRAAFKDEGTKGIVLRINSPGGSPVQSGYIYDEIRRLRGEHPNVKVYAVISDLGASGAYYIASAADQIYADKASLVGSIGVTAASFGFVGTMEKLGVERRVYTSGEHKSFLDPFQPQKPEETQFWQQVLDTTHKQFIDSVKKGRGDRLKVEGHPELFSGLVWSGEQALQLGLIDGLGNASYVAREVVKEKKIEDYTVQESPFDRFAKKFGASVAERLALWMGWQGPVLRLEHHHHHH	failed
MDTAASPLTYRDATDADVDALVALIESAYRGDASRAGWTTEADILQGQRTDPQGVLEVVKAPDSRLLTVERDGRIVACCQLEHRGAHAYFGMFAVSPALQGAGLGKAIIAEAERQARTTWGVTEMHMTVISVRDDLIAWYERRGYRRTGETTPFPYGDERFGIPQRADLRFELLVKPLV	failed
MIWIVGSGTCRGQTTERAKEIIERAEVIYGSRRALELAGVVDDSRARILRSFKGDEIRRIMEEGREREVAVISTGDPMVAGLGRVLREIAEDVEIKIEPAISSVQVALARLKVDLSEVAVVDCHAKDFDAELTELLKYRHLLILADSHFPLERLGKRRVVLLENLCMEGERIREGNADSIELESDYTIIFVEREVME	not failed
MPMSSPMMSDTDREDLDAILRTVLVSDKGYVETLSRATGLNGKALTDKAAFTLSRLSAVGGYDYENEALEVAGRYLAEARFTEAEAIYRQVLVSFPEKHGFNHPGYATRLNNLAEVLRATARYDEAESLYRQALEIDREALGLEHPDYGIDLLNLAGLLHDRGRYEAAEPLYREAMTIIGKVVGEEHYRYATAQNNLAGLLQDMLRFEEAEALCRQALEITSKTLGESHSVYATRLNNLAELLGTTERYGEAEPLYRQALEITQKTLGEEHPDFAIRLNNLAVLLKATGRYEEAEPLYRQALEITHRTLGEAHPDYATRLNNFAGLLDSTERYDEAEPLYRQALEICEKALGVEHPSTQTVRANLELFLSEKPD	failed
MINEIGHYVLVLALGVGLIVSTLPVIGARRNDRALMDVASLGSVLMFLLVGFSFAALTHAYAVSDFSVRNVWENSHSLMPMLYKLTGVWGNHEGSMLLWLLILVFFSALVAAFGGNLPETLKANVLAVQAWISVAFLLFILLTSNPFLRLERVPAEGQDLNPILQDFGLAIHPPLLYLGYVGFSVCFSFAVAALLEGRIDAAWARWVRPWTLAAWTFLTAGISMGSYWAYYELGWGGWWFWDPVENASFMPWLAGTALLHSALVMEKREALKIWTVLLAIMTFSLSLLGTFLVRSGVLTSVHAFATDPSRGIFILGILTIFIGGAFALFAWRAPSLKAGGLFAPISREGALVLNNLILTVSTATVLIGTLYPLILETLTGEKISVGAPFFNLTFGLLMIPVLIVTPFGPMLAWKRGDLLGAFQRLYVAAAIAALAGLTLWYIENGGPVLAALGIAAGFWLIFGALTDLWYRANFGKLAFGIAFRRLKGLPRSAFGTALAHMGLGITVLGIVIVTTYETETVLEMKQGTVAEAGGYSLTFDGIRHAVGPNFTEDRGHFTVRKAGVEVADVWSSKRLYTARRMPTTEAGILTFGLSQLYVSLGDPMADGGMVVRIWWKPFILCIWGGTLFMMAGGFISLSDRRLRVGAPTRKAKPVRAAMPEAAE	failed
MSLETFHYIANQLSGIFNFNGEPLATALIILGLAILSIMILAGLIYGAIKVVKAVPNMPFKQFIIVMLMIAVFLVIVGVLIP	failed
MSGGLVALLDDVAALARIAAASVDDIAAGAAKAGAKAAGVVIDDAAVTPQYVSGADPSRELPMIKRIFWGSLRNKLLIILPALLLVSAFIPGVIPFILMLGGTYLCYEGAEKVWHKLRGHSATEKAPAVQRGPEAEAKVTKGAITTDFILSCEIMVIAMNEVADESLWVRALILVVVAFVITVVVYGAVGLIVKMDDIGLHLTTKASSGSQRFGRLLVKGMPAVLAAITLIGTIAMLWVGGHIMLQGAYDLGWHAPYDLVHVLETPFAGIPVAGGFLAWLVNTLCSAILGAVWGLVIMVILHPLLKVLPFGKKHEGHEEGDVRAAIAGYRPAKSKPTR	failed
MNQIAPRRFSGLRIVLLVLLAVLAFLLLMPTRVQPVAWNPAPAPSLSQGPFAENQKLKAVQPVGARDIDGPEALLLEHEQLLSGLHDGRVIQSSLDGSALKVLVNTGGRPLGLARHPDGRLIIADAIKGLLALDSQGQLQTLSTEANGLKFGFTDDVAVDAAGRYAYFSDATSRWGYGHDGEAVIEHGADGRLLRYDFQSGTTEVLLDRLEFANGIALGPDEAYVLVNETGAYRISRYWLKGDKAGSHDLFIDNLPGLPDNLSFNGAGRFWVALYAPRNPLLDATAPYPFVRKMLVRAMTVLPKPVEKRGFVLGLDTQGRVIANLQDGSSGNYSPITTVREYGDALYLGSLTARHMARLSLKEALAP	failed
